Consider two molecules from paper PMC11076555, “Dishevelled2 activates WGEF via its interaction with a unique internal peptide motif of the GEF” (Communications Biology, 2024).

Experiment [1] concerns the target T1, Dvl2^PDZ (PDZ domain of human Dishevelled2) (Homo sapiens, UniProt O14641).
T1 construct: introducing a stop codon after C354 residue of Dvl2^PDZ to eliminate the fused peptide, cloned at the C-termini of PDZ; 6xHis (N, cleaved yes); host or cells: E. coli Rosetta (DE3)
T1 sequence (O14641 267-339 limits assumed): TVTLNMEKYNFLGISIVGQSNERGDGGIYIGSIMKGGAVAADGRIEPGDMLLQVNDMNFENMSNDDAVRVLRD
The experiment can be described thus: Microscale thermophoresis (MST) binding to Dvl2^PDZ. The settings on record: Monolith NT.115, 50 nM Red-maleimide labelled Dvl2^PDZ, 10 mM Tris–HCl pH 8, 150 mM NaCl, 2 mM DTT, 5% glycerol, 0.05% Tween20, 30 min at 25 °C, peptides diluted 1:2 16 times from ~3.4 mM, hWGEF 138–0.0042 µM, Kd fit model, triplicates, read-out: Kd (dissociation constant) for Dvl2^PDZ. On the procedure:
MST experiments were performed using Monolith NT.115 instrument from Nanotemper technologies. Dvl2^PDZ domain was fluorescently labelled as per the instructions, using Monolith Redmaleimide 2nd generation-cysteine reactive label. The experimental condition consists of 10 mM Tris–HCl pH8, 150 mM NaCl, 2 mM DTT, 5% Glycerol and 0.05% Tween20. For Dvl2^PDZ-peptide affinity determination, synthetic WGEF peptides were serially diluted (1:2) 16 times, starting from an approximate concentration of 3.4 mM. 50 nM of fluorescently labelled Dvl2^PDZ domain was added to the serially diluted peptides, followed by incubation at 25 °C for 30 minutes. Thermophoresis signals were recorded at 20% of excitation power and 40% MST at 25 °C. Data was fitted using the Kd fit model in the MO. Affinity Analysis v2.3 software. Like peptides, hWGEF (330–581) protein was serially diluted to obtain a protein concentration range of 138–0.0042 µM. Experimental conditions were the same as mentioned above for peptides. […]
Guanine nucleotide exchange assays were performed in triplicates. Fluorescence decrease was fitted using a single exponential decay mode in GraphPad Prism. […] Statistical significance was calculated using ordinary One-way ANOVA with multiple comparisons. * Represents adjust P value with statistical significance of ****P < 0.0001, ***P < 0.001, **P < 0.01 and *P ≤ 0.01. […]
(In general: MST reads how a fluorescent partner responds to local heating, with and without ligand.)

The subject of another experiment is xWGEF330. The experiment can be described thus: In vitro guanine nucleotide exchange (GEF) assay, activation of xWGEF330 by Dvl2^PDZ. The settings on record: 5 µM xWGEF330, 2 µM Mant-GDP loaded RhoA, 25 °C, triplicates. Type of experiment: biochemical, Xenopus laevis. On the procedure:
Guanine nucleotide exchange assays were carried out using RhoA loaded with fluorescently labelled Mant-GDP[63],[64]. Briefly, 150 μM of RhoA was incubated with 5 Molar excess of fluorescent label, i.e., Mant-GDP in a buffer containing 10 mM Tris pH 8, 150 mM NaCl, 2 mM DTT, 5 mM EDTA, 0.5 mM MgCl2 and 5% Glycerol. The reaction was incubated on ice for 30 min, followed by the addition of 10 mM MgCl2 to stop the reaction. Excess Mant-GDP was removed through buffer exchange and Mant-GDP loaded RhoA was concentrated and stored at −80 °C. For assays, 2 μM of Mant-GDP loaded RhoA was incubated with 5 μM of xWGEF in the presence or absence of hDvl2^PDZ (0 μM, 25 μM and 50 μM) for 30 min at 25 °C. […] Once the fluorescence was stable, excess GTP (10x of labelled GTPase) was added to start the exchange reaction. […] A decrease in fluorescence was recorded using a BioTek Cytation5 plate reader with excitation and emission of 360 and 440 nm, respectively. Fluorescence was normalized and decrease was fitted using a single exponential decay mode in GraphPad Prism. […]
Guanine nucleotide exchange assays were performed in triplicates. Fluorescence decrease was fitted using a single exponential decay mode in GraphPad Prism. […]

B1: hWGEF: recombinant human WGEF construct, residues from 330 to 581 (protein)
chain: PPRANLSPSSSFRAQRSARGSTFSLWQDIPDVRGSGVLATLSLRDCKLQEAKFELITSEASYIHSLSVAVGHFLGSAELSECLGAQDKQWLFSKLPEVKSTSERFLQDLEQRLEADVLRFSVCDVVLDHCPAFRRVYLPYVTNQAYQERTYQRLLLENPRFPGILARLEESPVCQRLPLTSFLILPFQRITRLKMLVENILKRTAQGSEDEDMATKAFNALKELVQECNASVQSMKRTEELIHLSKKIHFEG
modifications: left off: GST, N-terminal, cleaved
With B1, in experiment [1], the Kd worked out at 7.9 ± 0.3 µM.

B2: Dvl2^PDZ: recombinant PDZ domain of human Dishevelled2 (protein)
chain: MSLNIITVTLNMEKYNFLGISIVGQSNERGDGGIYIGSIMKGGAVAADGRIEPGDMLLQVNDMNFENMSNDDAVRVLRDIVHKPGPIVLTVAKC
modifications: Monolith Red-maleimide 2nd generation cysteine-reactive fluorescent label (in the MST experiments); left off: His6, N-terminal, cleaved
notes: recombinant PDZ domain of human Dishevelled2
B2: the “Change in GEF activity of xWGEF330” value is reported as “did not show any observable change” in the experiment on xWGEF330 (25 µM Dvl2^PDZ) and “fourfold increase” in the experiment with xWGEF330 (50 µM Dvl2^PDZ (10-fold excess)).

One may read the Kd as the free concentration of one partner at which half of the binding sites on the other are occupied at equilibrium, for simple one-to-one binding.
